Source: the supplement of paper PMC10065799, “High-throughput profiling of sequence recognition by tyrosine kinases and SH2 domains using bacterial peptide display” (eLife, 2023)

Biological target: FGFR3 (UniProt P22607)
Experiment: phosphorylation enrichment, bacterial display (enrichment ratio); higher = better substrate or ligand; peptides without Tyr show the background
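Also: 11-residue human phosphosite peptides and single-mutation variants displayed on the E. coli surface, counted by deep sequencing, each peptide's frequency after selection divided by its frequency in the unselected input library; frequency after pTyr selection over input frequency; kinase dosed for 20-30% of maximal phosphorylation in three min.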

Sequence of FGFR3 (P22607 whole entry, looked up): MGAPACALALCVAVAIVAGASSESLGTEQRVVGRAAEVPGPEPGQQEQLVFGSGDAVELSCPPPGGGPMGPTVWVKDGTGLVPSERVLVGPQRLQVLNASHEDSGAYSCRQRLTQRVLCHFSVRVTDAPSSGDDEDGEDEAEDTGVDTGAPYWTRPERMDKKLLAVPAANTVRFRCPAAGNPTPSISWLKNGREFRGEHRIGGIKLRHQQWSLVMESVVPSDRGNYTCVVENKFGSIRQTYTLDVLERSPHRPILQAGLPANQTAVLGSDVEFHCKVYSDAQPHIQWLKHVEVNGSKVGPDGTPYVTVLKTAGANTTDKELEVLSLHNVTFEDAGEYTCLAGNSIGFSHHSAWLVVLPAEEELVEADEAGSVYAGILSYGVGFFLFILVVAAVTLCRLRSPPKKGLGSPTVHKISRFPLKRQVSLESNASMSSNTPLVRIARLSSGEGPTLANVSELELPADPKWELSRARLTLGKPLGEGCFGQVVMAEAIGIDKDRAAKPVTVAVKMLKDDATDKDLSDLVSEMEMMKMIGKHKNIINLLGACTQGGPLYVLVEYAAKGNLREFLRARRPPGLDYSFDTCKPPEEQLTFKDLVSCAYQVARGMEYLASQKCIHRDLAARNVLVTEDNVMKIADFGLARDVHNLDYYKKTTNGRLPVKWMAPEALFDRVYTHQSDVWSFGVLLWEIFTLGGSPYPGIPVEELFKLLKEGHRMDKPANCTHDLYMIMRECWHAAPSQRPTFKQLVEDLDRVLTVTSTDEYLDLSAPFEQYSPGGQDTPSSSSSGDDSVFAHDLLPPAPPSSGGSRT

In order of falling phosphorylation enrichment:
1. ELANLYHHVWM [BICD2_Y538_C542W]  4.76
2. LMFPDYLPCSV [SAG_Y129_T125M]  4.58
3. RYLYYYSYLLK [PTEN_Y178_V175L]  2.91
4. SNTFLYQLVFD [EXO1_Y284_N279S]  1.9
5. QQIYTYDSGIH [JUP_Y22_T19I]  1.84
6. LGQRIYQFIQS [DYRK1B_Y271_YF]  1.5
7. PIMSFYAALID [RYR1_Y2426_A2421P]  1.33
8. DPHECYAEVFD [ALB_Y394_K396E]  1.25
9. CGTPEYLAPEI [PRKACA_Y205]  1.06
10. SHNELYFEEAE [VANGL1_Y344_YF]  1.02
11. HILRVYGGVLP [PCNX4_Y999]  1
12. LSVEIYDRREY [ITGB7_Y753]  0.869
13. ISRDVYSTDFF [NTRK2_Y702_M697I_YF]  0.855
14. LDPDSYNMFEN [FOXC1_Y159]  0.855
15. GTPVMYTFDEF [COL10A1_Y623_YF]  0.806
16. VPDANYTSDEE [STK33_Y439]  0.796
17. SVVVPYEQPEV [TP53_Y220_P222Q]  0.774
18. HDRNTYEKFLG [TF_Y666_YF]  0.751
19. TGQEDYDRLRP [RAC1_Y64_A59T]  0.732
20. EGQKIYIDDNS [PIP4K2A_Y246_N251S]  0.645
21. YLAATYPTLGQ [NF1_Y2508_V2511L]  0.642
22. SGIFQYSIAKF [FOXL2_Y83_I84S_YF]  0.638
23. QWRTKYETDAI [MYH7_Y1375]  0.624
24. NPSYNYEIVNR [DYNC1H1_Y3379]  0.572
25. ERMKVYVPTGF [EPHX1_Y393]  0.539
26. SVTCKYSPALN [TP53_Y126_T125K]  0.515
27. ASENVYVNTAH [CTSC_Y150_I153T]  0.485
28. KGRGEYSAIKA [PRKCD_Y374_F375S]  0.443
29. SQAPGYSYTAA [CYCS_Y47_G42S]  0.43
30. FRNKPYISWPS [CDC42BPB_Y1638_S1633Y_YF]  0.427
31. ITLKGYNLSKS [GNPTAB_Y728]  0.402
32. ETMNKYHLSGR [MYEF2_Y164_D165H]  0.367
33. RRNTCYASIAK [ACADM_Y353_Y352C]  0.347

Biological target: EPHB1 (UniProt P54762)
Sequence (P54762 whole entry, looked up): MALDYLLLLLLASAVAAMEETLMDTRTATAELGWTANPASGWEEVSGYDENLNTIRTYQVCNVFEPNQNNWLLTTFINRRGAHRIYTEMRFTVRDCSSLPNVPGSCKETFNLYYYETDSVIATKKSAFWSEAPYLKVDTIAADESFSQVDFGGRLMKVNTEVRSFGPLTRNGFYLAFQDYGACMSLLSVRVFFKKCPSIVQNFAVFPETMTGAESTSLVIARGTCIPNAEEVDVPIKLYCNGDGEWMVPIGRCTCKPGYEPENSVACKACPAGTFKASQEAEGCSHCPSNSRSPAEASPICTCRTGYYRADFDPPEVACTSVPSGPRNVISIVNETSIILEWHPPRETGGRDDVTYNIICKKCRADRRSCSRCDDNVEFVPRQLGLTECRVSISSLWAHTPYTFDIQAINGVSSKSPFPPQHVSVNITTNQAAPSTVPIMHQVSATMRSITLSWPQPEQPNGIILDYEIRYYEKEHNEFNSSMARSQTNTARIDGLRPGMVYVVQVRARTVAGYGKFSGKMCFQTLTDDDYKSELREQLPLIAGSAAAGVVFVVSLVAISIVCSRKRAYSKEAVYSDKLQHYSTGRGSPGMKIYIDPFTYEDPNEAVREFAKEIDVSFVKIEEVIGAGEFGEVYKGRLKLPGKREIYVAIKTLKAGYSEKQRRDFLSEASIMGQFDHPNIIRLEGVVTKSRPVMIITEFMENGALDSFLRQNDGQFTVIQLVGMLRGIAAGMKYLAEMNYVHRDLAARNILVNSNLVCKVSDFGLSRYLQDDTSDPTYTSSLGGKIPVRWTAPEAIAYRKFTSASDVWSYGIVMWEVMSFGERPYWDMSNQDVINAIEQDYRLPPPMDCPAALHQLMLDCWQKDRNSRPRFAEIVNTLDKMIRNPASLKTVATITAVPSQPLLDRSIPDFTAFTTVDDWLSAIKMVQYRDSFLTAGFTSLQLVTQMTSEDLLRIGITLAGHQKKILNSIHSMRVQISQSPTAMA
Experiment: as above

In order of rising phosphorylation enrichment:
1. FRNKPYISWPS [CDC42BPB_Y1638_S1633Y_YF]  0.255
2. RRNTCYASIAK [ACADM_Y353_Y352C]  0.287
3. YLAATYPTLGQ [NF1_Y2508_V2511L]  0.331
4. ETMNKYHLSGR [MYEF2_Y164_D165H]  0.332
5. ITLKGYNLSKS [GNPTAB_Y728]  0.342
6. ERMKVYVPTGF [EPHX1_Y393]  0.407
7. SVTCKYSPALN [TP53_Y126_T125K]  0.431
8. KGRGEYSAIKA [PRKCD_Y374_F375S]  0.434
9. SQAPGYSYTAA [CYCS_Y47_G42S]  0.466
10. EGQKIYIDDNS [PIP4K2A_Y246_N251S]  0.499
11. HDRNTYEKFLG [TF_Y666_YF]  0.525
12. SGIFQYSIAKF [FOXL2_Y83_I84S_YF]  0.555
13. SHNELYFEEAE [VANGL1_Y344_YF]  0.568
14. HILRVYGGVLP [PCNX4_Y999]  0.591
15. GTPVMYTFDEF [COL10A1_Y623_YF]  0.621
16. LDPDSYNMFEN [FOXC1_Y159]  0.637
17. VPDANYTSDEE [STK33_Y439]  0.649
18. SVVVPYEQPEV [TP53_Y220_P222Q]  0.652
19. QWRTKYETDAI [MYH7_Y1375]  0.663
20. LSVEIYDRREY [ITGB7_Y753]  0.669
21. ASENVYVNTAH [CTSC_Y150_I153T]  0.7
22. TGQEDYDRLRP [RAC1_Y64_A59T]  0.781
23. ISRDVYSTDFF [NTRK2_Y702_M697I_YF]  0.866
24. DPHECYAEVFD [ALB_Y394_K396E]  0.871
25. CGTPEYLAPEI [PRKACA_Y205]  0.893
26. LMFPDYLPCSV [SAG_Y129_T125M]  1.07
27. PIMSFYAALID [RYR1_Y2426_A2421P]  1.45
28. RYLYYYSYLLK [PTEN_Y178_V175L]  3.51
29. QQIYTYDSGIH [JUP_Y22_T19I]  3.57
30. SNTFLYQLVFD [EXO1_Y284_N279S]  5.47
31. ELANLYHHVWM [BICD2_Y538_C542W]  6.35
32. LGQRIYQFIQS [DYRK1B_Y271_YF]  11.7
33. NPSYNYEIVNR [DYNC1H1_Y3379]  13

Biological target: Fes (UniProt P07332)
Sequence (P07332 whole entry, looked up): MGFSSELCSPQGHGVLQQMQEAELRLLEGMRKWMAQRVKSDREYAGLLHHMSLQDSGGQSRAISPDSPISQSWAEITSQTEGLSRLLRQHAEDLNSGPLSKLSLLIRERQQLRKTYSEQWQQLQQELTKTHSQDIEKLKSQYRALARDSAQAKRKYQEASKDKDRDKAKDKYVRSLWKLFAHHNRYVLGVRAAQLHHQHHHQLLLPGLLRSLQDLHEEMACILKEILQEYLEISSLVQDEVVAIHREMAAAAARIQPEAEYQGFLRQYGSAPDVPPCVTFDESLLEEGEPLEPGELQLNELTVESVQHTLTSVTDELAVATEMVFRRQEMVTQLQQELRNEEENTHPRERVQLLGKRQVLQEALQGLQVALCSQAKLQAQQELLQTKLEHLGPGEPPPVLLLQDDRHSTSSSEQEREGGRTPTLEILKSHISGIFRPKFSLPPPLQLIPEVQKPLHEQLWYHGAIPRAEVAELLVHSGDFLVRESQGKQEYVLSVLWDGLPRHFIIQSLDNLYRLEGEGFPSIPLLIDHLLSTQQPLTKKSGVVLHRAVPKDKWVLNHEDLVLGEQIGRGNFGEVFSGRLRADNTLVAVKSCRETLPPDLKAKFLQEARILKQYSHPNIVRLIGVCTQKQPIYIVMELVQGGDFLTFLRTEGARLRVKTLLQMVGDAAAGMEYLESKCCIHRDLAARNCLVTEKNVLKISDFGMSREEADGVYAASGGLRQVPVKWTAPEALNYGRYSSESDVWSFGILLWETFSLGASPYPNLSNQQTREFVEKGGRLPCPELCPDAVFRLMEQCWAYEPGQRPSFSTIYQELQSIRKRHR
Experiment: as above

In order of falling phosphorylation enrichment:
1. RYLYYYSYLLK [PTEN_Y178_V175L]  1.7
2. CGTPEYLAPEI [PRKACA_Y205]  1.57
3. LMFPDYLPCSV [SAG_Y129_T125M]  1.55
4. DPHECYAEVFD [ALB_Y394_K396E]  1.55
5. SNTFLYQLVFD [EXO1_Y284_N279S]  1.49
6. PIMSFYAALID [RYR1_Y2426_A2421P]  1.46
7. LSVEIYDRREY [ITGB7_Y753]  1.4
8. VPDANYTSDEE [STK33_Y439]  1.38
9. QWRTKYETDAI [MYH7_Y1375]  1.36
10. HDRNTYEKFLG [TF_Y666_YF]  1.33
11. SVVVPYEQPEV [TP53_Y220_P222Q]  1.28
12. LGQRIYQFIQS [DYRK1B_Y271_YF]  1.26
13. ELANLYHHVWM [BICD2_Y538_C542W]  1.25
14. SHNELYFEEAE [VANGL1_Y344_YF]  1.21
15. TGQEDYDRLRP [RAC1_Y64_A59T]  1.17
16. GTPVMYTFDEF [COL10A1_Y623_YF]  1.16
17. LDPDSYNMFEN [FOXC1_Y159]  1.14
18. HILRVYGGVLP [PCNX4_Y999]  1.12
19. EGQKIYIDDNS [PIP4K2A_Y246_N251S]  1.09
20. SGIFQYSIAKF [FOXL2_Y83_I84S_YF]  0.969
21. ISRDVYSTDFF [NTRK2_Y702_M697I_YF]  0.929
22. QQIYTYDSGIH [JUP_Y22_T19I]  0.923
23. KGRGEYSAIKA [PRKCD_Y374_F375S]  0.864
24. ASENVYVNTAH [CTSC_Y150_I153T]  0.86
25. ERMKVYVPTGF [EPHX1_Y393]  0.818
26. SVTCKYSPALN [TP53_Y126_T125K]  0.795
27. NPSYNYEIVNR [DYNC1H1_Y3379]  0.776
28. YLAATYPTLGQ [NF1_Y2508_V2511L]  0.773
29. ITLKGYNLSKS [GNPTAB_Y728]  0.686
30. SQAPGYSYTAA [CYCS_Y47_G42S]  0.666
31. FRNKPYISWPS [CDC42BPB_Y1638_S1633Y_YF]  0.552
32. ETMNKYHLSGR [MYEF2_Y164_D165H]  0.53
33. RRNTCYASIAK [ACADM_Y353_Y352C]  0.467

System: Fer (mouse)
Experiment: as above

In order of rising phosphorylation enrichment:
1. ETMNKYHLSGR [MYEF2_Y164_D165H]  0.357
2. FRNKPYISWPS [CDC42BPB_Y1638_S1633Y_YF]  0.366
3. HDRNTYEKFLG [TF_Y666_YF]  0.378
4. SVTCKYSPALN [TP53_Y126_T125K]  0.392
5. ITLKGYNLSKS [GNPTAB_Y728]  0.414
6. RRNTCYASIAK [ACADM_Y353_Y352C]  0.424
7. KGRGEYSAIKA [PRKCD_Y374_F375S]  0.45
8. EGQKIYIDDNS [PIP4K2A_Y246_N251S]  0.459
9. SGIFQYSIAKF [FOXL2_Y83_I84S_YF]  0.467
10. GTPVMYTFDEF [COL10A1_Y623_YF]  0.473
11. SQAPGYSYTAA [CYCS_Y47_G42S]  0.499
12. LDPDSYNMFEN [FOXC1_Y159]  0.527
13. ASENVYVNTAH [CTSC_Y150_I153T]  0.527
14. HILRVYGGVLP [PCNX4_Y999]  0.532
15. QWRTKYETDAI [MYH7_Y1375]  0.543
16. ERMKVYVPTGF [EPHX1_Y393]  0.562
17. TGQEDYDRLRP [RAC1_Y64_A59T]  0.563
18. SVVVPYEQPEV [TP53_Y220_P222Q]  0.568
19. ISRDVYSTDFF [NTRK2_Y702_M697I_YF]  0.568
20. LSVEIYDRREY [ITGB7_Y753]  0.587
21. DPHECYAEVFD [ALB_Y394_K396E]  0.617
22. VPDANYTSDEE [STK33_Y439]  0.658
23. RYLYYYSYLLK [PTEN_Y178_V175L]  0.676
24. YLAATYPTLGQ [NF1_Y2508_V2511L]  0.677
25. CGTPEYLAPEI [PRKACA_Y205]  0.679
26. SHNELYFEEAE [VANGL1_Y344_YF]  0.693
27. PIMSFYAALID [RYR1_Y2426_A2421P]  0.734
28. LMFPDYLPCSV [SAG_Y129_T125M]  1.19
29. NPSYNYEIVNR [DYNC1H1_Y3379]  1.26
30. QQIYTYDSGIH [JUP_Y22_T19I]  4.16
31. SNTFLYQLVFD [EXO1_Y284_N279S]  4.62
32. LGQRIYQFIQS [DYRK1B_Y271_YF]  10.1
33. ELANLYHHVWM [BICD2_Y538_C542W]  12.9
